This passage reports binding signal results from publication PMC9062193.

The data set deals with lactoferrin (Lac) (bovine? ("from bovine milk"), UniProt P24627 20-708). Briefly: protein microarray.
Sequence of lactoferrin (Lac) (P24627 20-708): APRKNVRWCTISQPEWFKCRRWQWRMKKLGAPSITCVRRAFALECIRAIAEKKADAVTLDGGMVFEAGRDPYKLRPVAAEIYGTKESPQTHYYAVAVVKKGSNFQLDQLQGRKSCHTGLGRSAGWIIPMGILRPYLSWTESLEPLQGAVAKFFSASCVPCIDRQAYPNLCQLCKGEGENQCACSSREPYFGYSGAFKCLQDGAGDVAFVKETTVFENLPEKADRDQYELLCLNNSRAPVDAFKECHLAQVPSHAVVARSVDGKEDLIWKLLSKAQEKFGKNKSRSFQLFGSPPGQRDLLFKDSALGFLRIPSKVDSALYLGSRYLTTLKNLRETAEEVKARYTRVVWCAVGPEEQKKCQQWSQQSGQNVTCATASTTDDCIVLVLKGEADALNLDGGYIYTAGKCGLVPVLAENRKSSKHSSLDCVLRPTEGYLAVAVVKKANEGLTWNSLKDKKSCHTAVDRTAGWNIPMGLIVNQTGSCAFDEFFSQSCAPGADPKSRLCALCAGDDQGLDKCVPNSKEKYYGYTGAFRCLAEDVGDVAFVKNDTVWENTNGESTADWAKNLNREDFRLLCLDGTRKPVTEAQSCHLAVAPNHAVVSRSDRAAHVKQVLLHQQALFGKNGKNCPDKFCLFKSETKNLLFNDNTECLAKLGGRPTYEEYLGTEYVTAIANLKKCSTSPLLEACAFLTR

B1: YFL-4 (Lac-A1, Lac1-4), truncated (ssDNA)
DNA: GCAGGACACCGTAACACGGGCTGATGCTCTCTTTATTTTACCTAAATAAAGTGTCCTGC
As to B1, the binding signal was found to be 2150 fluorescence intensity.
The value for AGGCAGGACACCGTAACCGGTGCATCTATGGCTACTAGCTTTTCCTGCCT (ssDNA) [YFL-1 (Lac-6a), truncated] was 1780 fluorescence intensity; that for AGGCAGGACACCGTAACCGGTGCATCTATGGCTACTAGCTCTTCCTGCCT (ssDNA) [YFL-6 (Lac-A4), truncated] was 2840 fluorescence intensity.

B2: YFL-5 (Lac-A3, Lac8-2), truncated (ssDNA)
DNA: CAGGCAGGACACCGTAACCGGGCATTTGCTCTCAATTTAGTCTCAAATTGTGGCCTGCCTG
Molecule B2 returned a binding signal of 2240 fluorescence intensity.

B3: YFL-7 (Lac-A6), truncated (ssDNA)
DNA: GCAGGACACCGTAACGGGTGCACACTCTTATTTTTACACGAGCCAAAAATATGTCCTGC
In the case of B3, the binding signal stood at 2490 fluorescence intensity.
